Experimental data from US20250277022A1 (STAIDSON BEIJING BIOPHARMACEUTICALS, published 2025).
Numbering of substitutions follows the chain as printed. Like-named read-outs stand apart in the source and are kept apart here. Blank lines part the entries; values can stand above or below the binder they belong to.

How the values were obtained:
[1] = molecular target: T1, human TSLP (human, UniProt Q969D9 29-159); assay: ELISA, plate coated with human TSLP, test antibodies as human IgG1
T1 construct: used biotinylated in some assays; also called hTSLP; recombinant human TSLP
Protocol: (§1) ELISA Screening: Monoclonal scFv antibodies were selected and subjected to ligand binding assays. The first assay was designed to identify scFv antibodies that bound human TSLP and/or cynomolgus TSLP. Briefly, a 96-well plate was coated with human TSLP or cynomolgus TSLP in PBS at 0.1 μg/well and left overnight at 4° C. Before loading the scFv antibodies, the plates were washed with TBST, blocked for 1-2 hours at 37° C. using 5% milk and washed again with TBST. Each scFv sample was first diluted to 40 μg/mL, and 150 μL was added to the first row of wells. The 40 μg/mL scFv samples were then serially diluted at a 1:3 ratio and added to the remaining wells. After incubating for an hour at 37° C., followed by washing with TBST for 6 times, 100 μl of the secondary antibody (HRP labeled mouse anti-flag (1:2500)) was added to each well. After incubation for an hour under 37° C., the plate was washed for 3 times using TBST. TMB was then added at 100 μL/well and incubated for 10-20 minutes at 37° C. 2 M H₂SO₄ was used to stop the reaction. The ELISA results (OD405) were then analyzed and the binding curves were generated by PRISM.

[2] = molecular target: T2, cynomolgus monkey TSLP (cynomolgus monkey, UniProt A0A7N9CAT7 29-159); assay: ELISA, plate coated with cynomolgus monkey TSLP, test antibodies as human IgG1
T2 construct: also called cynomolgus TSLP; recombinant cynomolgus monkey TSLP
T2 sequence (A0A7N9CAT7 entry or part of it): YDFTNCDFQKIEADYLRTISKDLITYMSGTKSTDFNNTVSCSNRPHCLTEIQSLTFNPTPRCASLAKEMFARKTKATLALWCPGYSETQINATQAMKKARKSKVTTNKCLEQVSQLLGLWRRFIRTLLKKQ
Protocol: as §1

[3] = molecular target: T3, human IL-7 (human, UniProt P13232 26-177); assay: ELISA on human IL-7
T3 construct: also called TSLP homologous protein IL-7
T3 sequence (looked up): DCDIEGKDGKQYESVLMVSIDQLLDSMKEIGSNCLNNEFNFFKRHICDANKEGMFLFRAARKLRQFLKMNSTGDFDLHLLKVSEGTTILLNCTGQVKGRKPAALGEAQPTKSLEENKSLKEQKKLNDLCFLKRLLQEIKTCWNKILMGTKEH

[4] = molecular target: T4, TSLP-His (human, UniProt Q969D9 29-159, limits assumed); assay: HTRF competition: blocking of TSLP-his binding to HEK293-Flag-hTSLPR-IL7Ra cells, IgG1
T4 construct: also called his-tagged TSLP; not shown: His-tag

[5] = molecular target: T1, human TSLP; assay: cell-based or functional assay
[6] = molecular target: E. coli derived human TSLP (human, UniProt Q969D9 29-159, limits assumed); assay: cell-based or functional assay
[7] = molecular target: T1, human TSLP; assay: solution equilibrium titration, MSD electrochemiluminescence, IgG1
Protocol: Briefly, according to the manufacturer's instructions, the streptavidin MSD plates were blocked 30 mins at RT with PBS with 3% BSA (assay buffer). Serially diluted human TSLP with the concentration from 0 to 50 nM was equilibrated with the tested antibodies with the concentration of 10 pM overnight at RT, wells without antigen were used to determine Bmax values; wells containing only assay buffer were used to determine background. 50 μL of biotinylated human TSLP was coated at 0.2 μg/mL in assay buffer for 30 mins at RT on streptavidin MSD plates. After washing with PBST for 3 times, 50 μL of the equilibrated samples were transferred to those plates and incubated for 30 mins at RT. […] After washing the MSD Plate with PBST for 3 times, 150 μL of MSD read buffer was added to each well, electrochemiluminescence signals of the plate was detected using a Sector Imager 6000 (Meso Scale Discovery, Gaithersburg, MD, USA).

[8] = molecular target: T1, human TSLP; assay: cell-based or functional assay; remark: listed apart in the source
[9] = molecular target: T2, cynomolgus monkey TSLP; assay: solution equilibrium titration, MSD electrochemiluminescence, IgG1
[10] = molecular target: T1, human TSLP; assay: cell-based or functional assay; remark: listed apart in the source
[11] = molecular target: T2, cynomolgus monkey TSLP; assay: ELISA, plate coated with cynomolgus monkey TSLP, test antibodies as human IgG1; remark: listed apart in the source
Protocol: as §1

[12] = molecular target: T1, human TSLP; assay: cell-based or functional assay; remark: listed apart in the source
[13] = molecular target: T1, human TSLP; assay: ELISA, plate coated with human TSLP, test antibodies as human IgG1; remark: listed apart in the source
Protocol: as §1

[14] = molecular target: T1, human TSLP; assay: cell-based or functional assay; remark: listed apart in the source
[15] = molecular target: T1, human TSLP; assay: ELISA, plate coated with human TSLP, test antibodies as human IgG1; remark: listed apart in the source
Protocol: as §1

[16] = molecular target: T2, cynomolgus monkey TSLP; assay: ELISA, plate coated with cynomolgus monkey TSLP, test antibodies as human IgG1; remark: listed apart in the source
Protocol: as §1

[17] = molecular target: T1, human TSLP; assay: ELISA, plate coated with human TSLP, test antibodies as human IgG1; remark: listed apart in the source
Protocol: as §1

[18] = molecular target: T2, cynomolgus monkey TSLP; assay: ELISA, plate coated with cynomolgus monkey TSLP, test antibodies as human IgG1; remark: listed apart in the source
Protocol: as §1

[19] = molecular target: T2, cynomolgus monkey TSLP; assay: as above; remark: listed apart in the source
Protocol: as §1

[20] = molecular target: T1, human TSLP; assay: ELISA, plate coated with human TSLP, test antibodies as human IgG1; remark: listed apart in the source
Protocol: as §1

B1: TSLP-0103 (antibody, V domains shown)
VH: QVQLQESGPGLVKPSETLSLTCTVSGYSISSGYGWSWIRQPPGKGLEWIGYISYYGSISYNPSLKSRVTISRDTSKNQFSLKLSSVTAADTAVYYCARTNLLYFDSWGQGTLVTVSS
VL: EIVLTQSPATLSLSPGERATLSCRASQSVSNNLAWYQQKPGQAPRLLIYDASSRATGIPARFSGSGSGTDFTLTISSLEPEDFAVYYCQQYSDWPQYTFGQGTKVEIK
EC50 (read off the curve) [1]: ~0.04 µg/mL
EC50 (read off the curve) [2]: ~0.7 µg/mL
binding result [3]: no binding
IC50 [4]: 0.379 µg/mL
IC50, inhibition of human TSLP-induced Stat5 activation (Stat5-luciferase reporter, Ba/F3 cells with hTSLPR and hIL7Ra) [5]: 0.0129 µg/mL

B2: TSLP-0107 (antibody, V domains shown)
VH: B1 VH with R72V
VL: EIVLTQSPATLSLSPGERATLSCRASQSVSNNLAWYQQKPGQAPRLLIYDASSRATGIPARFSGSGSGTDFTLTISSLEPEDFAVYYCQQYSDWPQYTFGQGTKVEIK
notes: also called TSLP-0107-IgG1
IC50, inhibition of E. coli derived human TSLP induced Stat5 activation [6]: 0.00259 µg/mL
Kd [7]: 0.044 nM
IC50, inhibition of TSLP induced proliferation of Ba/F3-TSLPR-IL7Ra cells (CellTiter-Glo) [8]: 0.0136 µg/mL
EC50 (read off the curve) [1]: ~0.04 µg/mL
EC50 (read off the curve) [2]: ~0.7 µg/mL
binding result [3]: no binding
Kd [9]: 0.0254 nM
IC50 [4]: 0.116 µg/mL
IC50, inhibition of human TSLP-induced Stat5 activation (Stat5-luciferase reporter, Ba/F3 cells with hTSLPR and hIL7Ra) [5]: 0.00884 µg/mL
IC50, inhibition of human TSLP induced TARC release from human PBMCs (TARC ELISA) [10]: 0.000758 µg/mL

B3: TSLP-02 (antibody, V domains shown)
VH: QVQLVQSGAEVKKPGSSVKVSCKASGFTFGSYGINWVRQAPGQGLEWLGVIVPLVGVTIYAEKFQGRVTITADTSTSTAYMELSSLRSEDTAVYYCARGQEYFYWYFDLWGQGTLVTVSS
VL: QSALTQPPSASGSPGQSVTISCSGSSSDIGGYNRVSWYQQHPGKAPKLMIYDVSKRPSGVPDRFSGSKSGNTASLTVSGLQAEDEADYYCSSYAGTDTFILFGGGTKLTVL
notes: also called parent antibody TSLP-02
EC50 (read off the curve) [11]: ~0.7 µg/mL
IC50, inhibition of TSLP induced proliferation of Ba/F3-TSLPR-IL7Ra cells (CellTiter-Glo) [8]: 0.0175 µg/mL
IC50, inhibition of human TSLP-induced Stat5 activation (Stat5-luciferase reporter, Ba/F3 cells with hTSLPR and hIL7Ra) [12]: 0.00667 µg/mL
EC50 (read off the curve) [13]: ~0.09 µg/mL
binding result [3]: no binding
IC50 [4]: 0.229 µg/mL

B10: TSLP-04 (antibody, V domains shown)
V domain 1: QEQLVQSGDEVKKPGASVKVSCKSSGFTFGSYAISWVRQAPGQGLEWMGMLVPLLGVTNYAEKFQGRVTITADPSTTTTSMELSSLRSEDTAVYYCARGGSNYLYWYFDLWGPGTPITVSS
V domain 2: QSAPIQPRSVSGSPGQSVTISCTGTSSDIGGYNRISWYQQHPGKAPKLMIYDVSKRPSGVSDRFSGSKSGNTASLTISGLQAEDEADYYCSSYAGTDTFVLFGGGTQLTIV
notes: also called parent antibody TSLP-04
IC50, inhibition of human TSLP-induced Stat5 activation (Stat5-luciferase reporter, Ba/F3 cells with hTSLPR and hIL7Ra) [14]: 0.0364 µg/mL
IC50, inhibition of TSLP induced proliferation of Ba/F3-TSLPR-IL7Ra cells (CellTiter-Glo) [8]: 0.15 µg/mL
EC50 (read off the curve) [17]: ~0.1 µg/mL

B12: TSLP-0301 (antibody, V domains shown)
VH: EVQLVESGGGLVQPGGSLRLSCAASGFTFSNYDMTWVRQAPGKGLEWVSSITFASSYIYYADSVKGRFTISRDNAKNSLSLQMNSLRAEDTAVYYCTRGGGAYYGGSLDVWGQGVLVTVSS
VL: DIVMTQTPLSLSVTPGEPASISCRSSQSLLHSNEYTYLHWYLQKPGQSPQLLIYLVSHRASGVPDRFSGSGSDTDFTLKISRVEAEDVGVYYCEQTLQTPFTFGGGTKVEIK
EC50 (read off the curve) [19]: ~2 µg/mL
IC50, inhibition of human TSLP-induced Stat5 activation (Stat5-luciferase reporter, Ba/F3 cells with hTSLPR and hIL7Ra) [14]: 0.0417 µg/mL
IC50, inhibition of TSLP induced proliferation of Ba/F3-TSLPR-IL7Ra cells (CellTiter-Glo) [8]: 0.217 µg/mL

B13: TSLP-03 (antibody, V domains shown)
VH: B12 VH with Y104H
VL: B12 VL with S32I, E34G, F101Y, T102S
notes: also called parent antibody TSLP-03
EC50 (read off the curve) [19]: ~0.9 µg/mL
EC50 (read off the curve) [20]: ~0.08 µg/mL
IC50, inhibition of human TSLP-induced Stat5 activation (Stat5-luciferase reporter, Ba/F3 cells with hTSLPR and hIL7Ra) [14]: 0.0367 µg/mL
IC50, inhibition of TSLP induced proliferation of Ba/F3-TSLPR-IL7Ra cells (CellTiter-Glo) [8]: 0.198 µg/mL
IC50 [4]: 0.494 µg/mL

Results, then the binder that gave them:

IC50, inhibition of human TSLP-induced Stat5 activation (Stat5-luciferase reporter, Ba/F3 cells with hTSLPR and hIL7Ra) [14]: 0.0421 µg/mL
IC50, inhibition of TSLP induced proliferation of Ba/F3-TSLPR-IL7Ra cells (CellTiter-Glo) [8]: 0.284 µg/mL
EC50 (read off the curve) [15]: ~0.04 µg/mL
EC50 (read off the curve) [16]: ~0.3 µg/mL
B4: TSLP-0205 (antibody, V domains shown)
VH: B3 VH
VL: B3 VL with S23T, S25T, S26T, D52E, I100A, L101I

EC50 (read off the curve) [11]: ~0.7 µg/mL
Kd [7]: 0.0211 nM
IC50, inhibition of TSLP induced proliferation of Ba/F3-TSLPR-IL7Ra cells (CellTiter-Glo) [8]: 0.0131 µg/mL
IC50, inhibition of human TSLP-induced Stat5 activation (Stat5-luciferase reporter, Ba/F3 cells with hTSLPR and hIL7Ra) [12]: 0.00257 µg/mL
EC50 (read off the curve) [13]: ~0.08 µg/mL
Kd [9]: 0.00447 nM
IC50 [4]: 0.297 µg/mL
IC50, inhibition of human TSLP induced TARC release from human PBMCs (TARC ELISA) [10]: 0.000365 µg/mL
B5: TSLP-0202 (antibody, V domains shown)
VH: B3 VH with L48M, T74E
VL: B3 VL
notes: also called TSLP-0202-IgG1

EC50 (read off the curve) [11]: ~0.7 µg/mL
IC50, inhibition of TSLP induced proliferation of Ba/F3-TSLPR-IL7Ra cells (CellTiter-Glo) [8]: 0.0185 µg/mL
IC50, inhibition of human TSLP-induced Stat5 activation (Stat5-luciferase reporter, Ba/F3 cells with hTSLPR and hIL7Ra) [12]: 0.00463 µg/mL
EC50 (read off the curve) [13]: ~0.07 µg/mL
IC50 [4]: 0.351 µg/mL
B6: TSLP-0201 (antibody, V domains shown)
VH: B3 VH with L48M
VL: B3 VL

IC50, inhibition of human TSLP-induced Stat5 activation (Stat5-luciferase reporter, Ba/F3 cells with hTSLPR and hIL7Ra) [14]: 0.0183 µg/mL
IC50, inhibition of TSLP induced proliferation of Ba/F3-TSLPR-IL7Ra cells (CellTiter-Glo) [8]: 0.0651 µg/mL
EC50 (read off the curve) [15]: ~0.04 µg/mL
EC50 (read off the curve) [16]: ~0.3 µg/mL
B7: TSLP-0206 (antibody, V domains shown)
VH: B3 VH with N35S, G56D
VL: B3 VL with S23T, S25T, S26I, D52E, I100V, L101F

IC50, inhibition of human TSLP-induced Stat5 activation (Stat5-luciferase reporter, Ba/F3 cells with hTSLPR and hIL7Ra) [14]: 0.025 µg/mL
IC50, inhibition of TSLP induced proliferation of Ba/F3-TSLPR-IL7Ra cells (CellTiter-Glo) [8]: 0.133 µg/mL
EC50 (read off the curve) [15]: ~0.05 µg/mL
B8: TSLP-0207 (antibody, V domains shown)
VH: B3 VH with N35S
VL: B3 VL with S23T, S25T, D52E, V53F, S54N, T98I, I100V

EC50 (read off the curve) [15]: ~0.1 µg/mL
EC50 (read off the curve) [16]: ~0.3 µg/mL
B9: TSLP-0208 (antibody, V domains shown)
VH: B3 VH with N35S, V52I, V55L, T58P, I59N, Q100A
VL: B3 VL with S23T, S26N, D52E, V53I, I100V

IC50, inhibition of human TSLP-induced Stat5 activation (Stat5-luciferase reporter, Ba/F3 cells with hTSLPR and hIL7Ra) [14]: 0.0195 µg/mL
IC50, inhibition of TSLP induced proliferation of Ba/F3-TSLPR-IL7Ra cells (CellTiter-Glo) [8]: 0.0195 µg/mL
EC50 (read off the curve) [17]: ~0.1 µg/mL
EC50 (read off the curve) [18]: ~2 µg/mL
IC50 [4]: 0.333 µg/mL
B11: TSLP-0401 (antibody, V domains shown)
V domain 1: B10 V domain 1 with L51I, V52I, N59D, S101T
V domain 2: B10 V domain 2 with I35V, D52E, S92A

EC50 (read off the curve) [20]: ~0.06 µg/mL
B14: TSLP-0302 (antibody, V domains shown)
VH: B12 VH with D33G
VL: B12 VL with N33Y, E34G, H58Y, F101Y
